Experimental data from patent publication US20210138049A1.
Where “and” joins values, the source holds several entries; their conditions need not be identical. Equal values may be shown once.

What was measured:
[1] = biological target: α-Synuclein 91-140 peptide (human); experiment: peptide ELISA, serum, 0 w
β-Syn (103-134) peptide = experiment: peptide ELISA, serum, 0 w

ELISA Log10 Titer [1]: 0.1 Log10 titer and 0.2 Log10 titer and 0.3 Log10 titer
ELISA Log10 Titer (β-Syn (103-134) peptide): 0.1 Log10 titer
Substance: preimmune guinea pig serum / antibodies purified from preimmune serum of naïve guinea pigs (antibody)
